Results reported in patent publication EP1426444A2 (Technion Research & Development Co., Ltd., dated 2004).

Target: T1, KDR/flk-1 VEGF receptor of HUVEC cells (human, UniProt P35968 20-1356)
T1 construct: whole, on cells; Endogenous receptor on confluent HUVEC cells; also called the larger VEGF receptor of HUVEC cells
Assay: overview table, row 'Binding to Flk-1 and Flt-1 receptors'

T1 sequence (P35968 20-1356): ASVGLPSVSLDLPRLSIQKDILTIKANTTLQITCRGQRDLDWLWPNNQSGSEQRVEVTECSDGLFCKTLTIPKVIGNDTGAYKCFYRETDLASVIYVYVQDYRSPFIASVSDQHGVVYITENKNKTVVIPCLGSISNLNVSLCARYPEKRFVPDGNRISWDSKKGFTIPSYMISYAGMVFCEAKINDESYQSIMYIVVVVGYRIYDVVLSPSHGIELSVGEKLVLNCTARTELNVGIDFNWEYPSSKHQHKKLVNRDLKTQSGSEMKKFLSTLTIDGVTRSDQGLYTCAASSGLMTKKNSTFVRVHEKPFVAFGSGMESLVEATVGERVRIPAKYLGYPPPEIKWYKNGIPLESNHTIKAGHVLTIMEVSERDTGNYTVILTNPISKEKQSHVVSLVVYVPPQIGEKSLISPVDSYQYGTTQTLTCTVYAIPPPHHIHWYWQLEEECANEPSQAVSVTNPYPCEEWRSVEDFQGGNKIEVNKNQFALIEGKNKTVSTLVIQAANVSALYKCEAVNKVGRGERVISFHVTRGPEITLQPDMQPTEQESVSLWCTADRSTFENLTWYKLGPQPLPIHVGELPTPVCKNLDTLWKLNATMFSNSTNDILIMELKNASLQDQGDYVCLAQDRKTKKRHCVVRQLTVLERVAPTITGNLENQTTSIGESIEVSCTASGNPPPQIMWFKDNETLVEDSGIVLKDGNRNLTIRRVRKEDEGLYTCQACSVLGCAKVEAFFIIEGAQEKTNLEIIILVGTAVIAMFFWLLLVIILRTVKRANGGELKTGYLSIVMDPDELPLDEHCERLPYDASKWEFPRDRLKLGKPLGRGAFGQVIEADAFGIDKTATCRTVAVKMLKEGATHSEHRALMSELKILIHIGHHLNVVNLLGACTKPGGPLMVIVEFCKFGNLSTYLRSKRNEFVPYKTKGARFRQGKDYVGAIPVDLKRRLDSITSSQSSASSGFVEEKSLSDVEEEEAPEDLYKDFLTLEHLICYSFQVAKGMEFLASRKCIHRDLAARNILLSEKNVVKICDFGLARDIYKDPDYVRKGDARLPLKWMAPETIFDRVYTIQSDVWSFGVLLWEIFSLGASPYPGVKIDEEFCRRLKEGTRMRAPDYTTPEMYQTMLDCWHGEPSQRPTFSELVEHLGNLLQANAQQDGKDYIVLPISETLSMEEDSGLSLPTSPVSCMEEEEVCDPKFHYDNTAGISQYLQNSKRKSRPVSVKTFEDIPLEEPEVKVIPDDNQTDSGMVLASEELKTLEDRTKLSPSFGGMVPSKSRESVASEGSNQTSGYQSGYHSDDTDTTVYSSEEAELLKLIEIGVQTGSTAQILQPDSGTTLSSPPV

B1: VEGF121 (ligand, human, UniProt P15692-9 27-147, looked up)
chain: APMAEGGGQNHHEVVKFMDVYQRSYCHPIETLVDIFQEYPDEIEYIFKPSCVPLMRCGGCCNDEGLECVPTEESNITMQIMRIKPHQGQHIGEMSFLQHNKCECRPKKDRARQEKCDKPRR
notes: mature
B1: binds.

B2: VEGF145 (recombinant, produced in Sf9 insect cells by baculovirus) (ligand)
chain: APMAEGGGQNHHEVVKFMDVYQRSYCHPIETLVDIFQEYPDEIEYIFKPSCVPLMRCGGCCNDEGLECVPTEESNITMQIMRIKPHQGQHIGEMSFLQHNKCECRPKKDRARQEKKSVRGKGKGQKRKRKKSRYKSWSVCDKPRR
notes: partially purified on heparin-sepharose; also called VEGF exons 1-5, 6a, 8
B2: binds.
